According to publication PMC5518211:

Experiments:
[1] = biological target: Calmodulin labeled with Cyanine5 (not stated (human brain CaM or recombinant bovine CaM bought)); assay: MST
[2] = biological target: Calmodulin (not stated (human brain CaM or recombinant bovine CaM bought)) (UniProt P0DP23); assay: SPR

Full-length recombinant human neurogranin with a His-tag at the N-terminus, sequence (Q92686 whole entry): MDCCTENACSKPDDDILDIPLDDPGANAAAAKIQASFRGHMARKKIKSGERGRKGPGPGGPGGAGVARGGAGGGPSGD

Row | Substance | Kd [1] [nM] | Kd [2] [nM]
1 | Full-length recombinant human neurogranin with a His-tag at the N-terminus (from UniProt Q92686) (natural protein) | 890 | 
2 | IQ-motif containing peptide of neurogranin (Ng 27-50) (from UniProt Q92686 27-50) |  | 14000
3 | Peptide corresponding to the CaM-binding region of CaMKIIα (CaMKII 290-309) (from UniProt Q9UQM7 290-309) | 190 | 
